assay: soluble on expression in E. coli; label from the status in PepcDB or PDB records

**Q.** Which “soluble on expression in E. coli” value does the source give for “MSLQGLWIYPEDTEVLGVACKSLLKALTPRYQKVALFSPISGGCESLEECESLNPLEFHSAISKQKALELASTAQEELLFETILKRYDELQSTHDFVINLGCAPKFFLNAPLDLNTILAKHLNASVVAVAQTSLEYLKAMHSHILKKEAPFAVGLFAGETLEKPHFLSMSLCKQQCELEADLIESVLQIKSEIITPLAFQRGLEKKAKKQIKKVVLPESEKMKGFEGHHHHHH” here?
**A.** Its value is “not soluble”.

**Q.** With “MSLQGQIDIPLDIVGRWQADQSAYELAKTYYWAKVAHLAEHNDQLAQPTYEGAHLADISEINNAPATARRMLVVSSDLFRAQQTAHAFADLMGLDVELDPRLRERSFGEWEGMTREEICEHYADDYHSWRAHTGGETKHGVESRIHTGRRGAEAVRDIVAKHHDETMPTTLLLVGHGSWIVATVAVLLDMDPDDLNNVGAMRNAFWTRMTPHTDPRNADRPTWKLEEFNQGPAIASEGHHHHHH” as the sequence, how does the “soluble on expression in E. coli” value read?
**A.** The value was “soluble”.

**Q.** For “MSLQIMLCAISNIASGNCSEDCKYCTQSAHVKTDIQKYRRKELSQIVLEAKMAKKNEALGFCLVTAGLGLDDEKLEYVCEAAKAVQKEVPNLLLIACNGMASVEQLKELKKAGIFSYNHNLESSKEFFPQICTTHTWESRFQTNLNAKEAGLMLCCGGIYGMGESEEDRLSFRKSLQELQPFSTPINFFIANENLKLQVPRLSADEALKIVRDTKEALPQSVVMVAGGREVVLRERQYEIFQAGAGAIVIGDYLTTKGEEPSQDIIKLKEMGFTFASECHEGHHHHHH”, which “soluble on expression in E. coli” value is on record?
**A.** The value was “not soluble”.

**Q.** Which “soluble on expression in E. coli” value does the source give for “MSLQISPETQLFIREHQTDDVRALALQARKYPNVDMPTAITQIAGRQVAAEKIPSWRDTDDIWYPKHLSLEQCSSEVTARYKATLLKGNSLTDLTGGFGIDCAFLAARFKSATYVERQQELCEIAAHNFPILNLNHINVKNEDGVSYLQAMSPVDCIFLDPARRNEHGGKTVAISDCEPDVAELEELLLNKAEQVMVKLSPMLDLSLALKELQHVQEVHIISANNECKELLLILGQASAEEISIHCVNLPTRGAQEEQHFVFTREQEQCSECNYTDTLENYLYEPNASLLKAGAFRSIASAFPVKKLHPNSHLYTSDVLVESFPGRAFHIISQCSLNKKELKESLGDLKKANITVRNFPATVAELRKRIKLSEGGDTYLFASTLNNGQKVLIRCEKAEGHHHHHH” here?
**A.** Its value is “soluble”.

**Q.** Which “soluble on expression in E. coli” value does the source give for “MSLQKLVAIEPVSLVLSAEKALYSFADEVVMYSDIPAGDNEIIARIGDADAVLLSYTSQINRYILERCPNVRYIGMCCSLYSPESANVDIRYANERGITVTGIRDYGDEGVIEYVVSELVRCLHGFGQKPWEGIPREITGLKVGIVGLGKSGGMIADAMKFFGADIAYYARSEKKEAGAKGYRFMPLNELLTWSEVVCCCLNKNTVLLHEAEFKALGNRKILFNTGLSPAWDESSFTRWLEEDNLCFCDTLGALGSTALLTHPHVRCMQVSTGRTRQAFDRLSEKVLANLSEYNGEGHHHHHH” here?
**A.** Its value is “soluble”.

**Q.** Which “soluble on expression in E. coli” value does the source give for “MSLQLLAEIVTVHTKHPFIIARGGQSEYQVVWVRLIDADGAEGWGEASPSKYYGETADTVMVALQRFAPVLAGADAWSIEAIERELEKAMRWNAAARCAVSAALHDLAARRLGVPLWKMWGLDRQATPISSFTIGIAPDAATLRARVREAAHYPLLKIKLGSSWDREVLRIVREEAPKAQLRVDANAAWTAKQALGMLDVLNEVGVDMLEQPLPPQELAGLRFVRERSNIPVVADESCLVASDIPKLEGIVDGVNIKLAKCGSLREALRMIAVARAHGMRVMCGCMIETTLGIAAAAHFSPLLDDADLDGAALLSDDPFDGPGIPDGRVVLGDAPGLGVTRRAGNEGHHHHHH” here?
**A.** Its value is “soluble”.

**Q.** Which “soluble on expression in E. coli” value does the source give for “MSLQNFDFNEALKGIQAGKPITGSDGVLAPLIKQLTEAALNAEIQSHLEQSSTSNRRNGYSKKTVKSAAGSFELETPRDRNGEYEPVLVKKHQTKLTAEIDSRILSLFSHGMSYRDIRHHIAEIYQLEVSEATISSITDELIPQLKAWQSRPLDSVYPFVWLDAIHYKVKDEGRYVSKAIYTLLALNTEGKKELIGLYCSESEGANYWLSVLTDLHNRGVQDILIACVDGLKGFPEAINAIFPNTEVQLCVIHQIRNSIRYVASRDQKAFMRDLKPVYKAVNKESAELALDDLEAVWGDQYPAVIKSWRDKWHLLSAYFKYPEAVRKPIYTTNAVEAVHRQFRKLTKTKGAFPNETSLLKLLYVGMLNASAKWTMPIRNWGQTMMQLSIYFPGRLDSVMREGHHHHHH” here?
**A.** Its value is “soluble”.

**Q.** Which “soluble on expression in E. coli” value does the source give for “MSLQPNTYFLHNILVTGATGFVGSFLCSRLLAEGMSVRGTFLVTENPDSLVKGTEQALIEPIGPATFWGHALAGAGTVIHLAARVHVMRERAADPLKEFRFVNTEGTAHLAREAAKAGVKRFVFMGTIGVNGDNSGDAPYIESSPPYPHNPYSVSKYEAEQLLRQISSETGMEVVIIRAPLVYGPGNPGNFLSLLKAVNGDYGFKTLNFGLKVLPLPLASINNKRSLIYVGNLVDALVTCATHPAAVGQTYLVSDGEDVSTPELIRRTAAALGVPARLFPFPVPLMKLAGKLIDKSAAVNRLTGSLTVDSSKIRRELGWQPPFTMEEGLQETAKWFEKQGEGHHHHHH” here?
**A.** Its value is “soluble”.

**Q.** Which “soluble on expression in E. coli” value does the source give for “MSLQPSQRVVLSHLVHGGWDEIAHSSLRPEIRGFKRTREVARSLLARRLPIYSAVFTGDCLFGNHPLLRPIGIHMQNVQAGNLLVSSTLVDGTVLNQAVCLMVHEDTEHAIGLMLNRPMQAMAGAITIQGTPQETPKIPRWNAEDLDETSEGDSTIDPSSDSIEHPVSGVPSVVISGDQKDQLAQQLLSGKLANGSSLHFGGPLSGPIVAVHSNRELAEAETGEGIFVAAQRENLEALMKSSDLPYRLIIGHLGWTAEQLENEIEEGIWHRIPATSDLLNSDDAMMWPRMIRRATANSVARWLDTTDVPGSAELNEGHHHHHH” here?
**A.** Its value is “soluble”.

**Q.** Which “soluble on expression in E. coli” value does the source give for “MSLQRFKFLMYQVVASDLDGTLLSPDHTLSPYAKETLKLLTARGINFVFATGRHHVDVGQIRDNLEIKSYMITSNGARVHDLDGNLIFAHNLDRDIASDLFGVVNDNPEIITNVYRDDEWFMNRHRPEEMRFFKEAVFNYALYEPGLLEPEGVSKVFFTCDSHEKLLPLEQAINARWGDRVNVSFSTLTCLEVMAGGVSKGHALEAVAKKLGYSLQDCIAFGDGMNDAEMLSMAGKGCIMGSAHQRLKDLHPELEVIGTNAEDAVPHYLRKLYLSEGHHHHHH” here?
**A.** Its value is “soluble”.

**Q.** With “MSLQTKQKGLQEVLIAAIKRATNEKTLVSFVKQIDWVDPLLFYAAGKRISFENRCYFADPAQHVIFAGIGSVFTIANSSHKRFQTARDEWEKVKENAFVQRDEYEFGTGPLLFGGFSFDPEKEKTDLWKEFKDTTFSLPAFLLTVKNEKAWLTMNTFVSATDCAETLSNEMISLEEKILGESRCALNGSKLTVISKVEVDPKGWMKAIEKVQDEMKQGNVQKVVLARELKVEMNHSIDSALVLEALRIGQPDCYVFSFDYKGACFLGATPERLIRKEDEKFTSMCLAGSIGHGHSIEESKRNSNALLHDEKNLAEHGYVVNMIRSVLNEHCEYVNIPESPGLLTTKNLIHLYTPVEAKGDASLLTMVEELHPTPALGGTPRLEAMKLIRDVELLDRGLYGAPIGWIDDEGNGEFAVALRCGLLNGEKASLFAGCGIVIDSIPQLEYEETSLKFRPMLGALEELMKEGHHHHHH” as the sequence, how does the “soluble on expression in E. coli” value read?
**A.** The value was “soluble”.

**Q.** For “MSLRAPRRSNADGLSENVLKAILEPAAAYMAETQKMKEEGNENGGSENTNIDQRNQLLQQASQRGSIGSFLDTTSLSTCSKRSLHSSRLTLSDSKEFYKTVGCRWIRSVRHGDVSTVKKMLEENSELVNYAPTYGPLALHLAAARSDRSIILLLLAKGAEVDSRDAAGYTCLQLAIRRGNQSLAHFLILQGANIELIDPDGRGIIDYDGWSGEDQRSAEKHFYGKIILRPKAHSFVGSPSSISMKSSKSTRTMRPSSTPNDSMISEYESSNLKRNEKQRSSWMSFFKSHTIFGSNSKS”, which “soluble on expression in E. coli” value is on record?
**A.** Its value is “not soluble”.

**Q.** With “MSLRFITPEKRTIEELRFPTREAADNAVKKIADGLSFDDLVKAENKTLNDIKKGPFTENELPSYLSSEIFELKQGQISAVINDLQGPVIIRVTDITPAGPIPFEKVEDNIRQTLAQNRAADDIRNSYTEIENARFEGASEGHHHHHH” as the sequence, how does the “soluble on expression in E. coli” value read?
**A.** The value was “soluble”.

**Q.** Which “soluble on expression in E. coli” value does the source give for “MSLRHGIQAVFLIEKISKCNSLESLSLLVKERQAVFEAMIESHLPANVIGQVLMMIYDAFTCRLIKLAERNVGLPPCNYAWLAAGSHARGEVHLGSDQDNALVLDDSATESDRIYFRHFAMYICKGLAECGYPLCNGRFMAATPKWNQPLFIWKQLYRKWANNPEYNMLLNLNVFLEVRFISGDRSLFDELNSERERCTKNNPHLIAALVRNLISHRPPLGIFNNLVLENNGHNEKSLNIKKSAIGLLVDIARIYALHKGGGMLSTEERFDFAYDRGLINSTSHQDLIGTYRYVTQLRYSHQLQCLQGGKPVTNAIFPEHFGSFERQHLKDAFRIIRGYQDTLKMKFGSEGHHHHHH” here?
**A.** The value was “soluble”.

**Q.** With “MSLRIADKTVTRAILERHGFTFKKSFGQNFLTDTNILQKIVDTAEIDKGVNVIEIGPGIGALTEFLAENAAEVMAFEIDDRLIPILADTLARFDNVQVVNQDILKADLQTQIQAFKNPDLPIKVVANLPYYITTPILMHLIESKIPFAEFVVMIQKEVADRISAMPNTKAYGSLSIAVQYYMTAKVSFIVPRTVFVPAPNVDSAILKMVRRDQPVVSVQDEDFFFRVSKVAFVHRRKTLWNNLTSHFGKSEDTKAKLEKALEIAKIKPSIRGEALSIPDFASLADALKEVGIEGHHHHHH” as the sequence, how does the “soluble on expression in E. coli” value read?
**A.** Its value is “soluble”.

**Q.** Which “soluble on expression in E. coli” value does the source give for “MSLRIGIVGVGFSEFRIHEEPFYNVAFLAAKRALEDAGIERGEVDSFILGGYDNLGVGRTISNMYTAPAAGAYLRHEIRVSDDALFALPLAFMKVKSGSEITMLLAFGHSSETPIELVELQSLDPFFHRPFNLSLPVFFAMQSYAYRERYGVKEEKIAEVVVRMREKGAKNPRAYIREKVSVEDVLSSEVVSSPLRRLEMAEWCDGCVAFILAEETVARRLSDSPVWVSGLGWSAENYYFDRSLHDLPFVAKSAEMAFKMSGKERKDVEALEISDLTADYYCMILEALGFAETGRGWEFNGDVNFSGGALCTNAYGSTGAFLLASIVERIRKGEIECGMAQSMSGYAQKSCVAILEGEGHHHHHH” here?
**A.** Its value is “soluble”.

**Q.** With “MSLRKEDKAAYRCLKAIKAGEKLTDAPAEDLPDLDLKPLEEMQNIYREHPEALQASVEIAEQCRVDVSLGQTRLPSFPTPDGTSADDYLTDICMEGLRSRFGKPDERYLRRLQYELDVIKRMKFSDYFLIVWDFMKHAHEKGIVTGPGRGSAAGSLVAYVLYITDVDPIKHHLLFERFLNPERVSMPDIDIDFPDTRRDEVIQYVQQKYGAMHVAQIITFGTLAAKAALRDVGRVFGVSPKEADQLAKLIPSRPGMTLDEARQQSPQLDKRLRESSLLQQVYSIARKIEGLPRHASTHAAGVVLSEEPLTDVVPLQEGHEGIYLTQYAMDHLEDLGLLKMDFLGLRNLTLIESITSMIEKEENIKIDLSSISYSDDKTFSLLSKGDTTGIFQLESAGMRSVLKRLKPSGLEDIVAVNALYRPGPMENIPLFIDRKHGRAPVHYPHEDLRSILEDTYGVIVYQEQIMMIASRMAGFSLGEADLLRRAVSKKKKEILDRERSHFVEGCLKKEYSVDTANEVYDLIVKFANYGFNRSHAVAYSMIGCQLAYLKAHYPLYFMCGLLTSEGHHHHHH” as the sequence, how does the “soluble on expression in E. coli” value read?
**A.** The value was “not soluble”.

**Q.** For “MSLRKFKSILLIDDDETSNFISEVIIKKLGITETISTVKNGVEALNFVSNNCTINCAPTCPQIIFLDLHMPVMDGFDFLKELKKQMPLYTQKFKIFVLSSSNNPADITKTKDFDVEGYIVKPLSQEKISMLLEDVAEGHHHHHH”, which “soluble on expression in E. coli” value is on record?
**A.** Its value is “not soluble”.

**Q.** For “MSLRLGIILHGVTGRMGYNQHLVRSVLAIRDQGGIMLKSGGRLEIDPIIVGRNRDKIEQLAKRHDIARWSTDLDAALADPNDQIFFDAGTTLMRAELIGRALDAGKHVYCEKPVSDDLRTAVKLARKARASGLKHGVVQDKLFLPGLQKLALLRDSGFFGKILSVRGEFGYWVFEGDWGVPAQRPSWNYRKKDGGGIILDMLCHWRYVLDNLFGEVKAVSCLGATHISSRIDEQGRAYDCDTDDAAYATFELEGGVIAQINSSWTVRVRRDDLVTFQVDGTHGSAVAGLTKCWTQHRVNTPKPVWNPDQPQTIDFYETWDEVPDTQAFDNGFKAQWEMFLRHVAEDSPWPYGLEAGAKGVQLAELGLKSWAERRWLDVPELEEGHHHHHH”, which “soluble on expression in E. coli” value is on record?
**A.** Its value is “soluble”.

From the DeepSol protein solubility set
